Results as given in patent US20250332197A1 (SUNSHINE LAKE PHARMA, published 2025).

T1: claudin-18.2 antigen (manufacturer: GenScript, batch number: R50092011) (UniProt P56856-2 1-261, limits assumed)
T1 construct: Bought antigen
T1 sequence (looked up): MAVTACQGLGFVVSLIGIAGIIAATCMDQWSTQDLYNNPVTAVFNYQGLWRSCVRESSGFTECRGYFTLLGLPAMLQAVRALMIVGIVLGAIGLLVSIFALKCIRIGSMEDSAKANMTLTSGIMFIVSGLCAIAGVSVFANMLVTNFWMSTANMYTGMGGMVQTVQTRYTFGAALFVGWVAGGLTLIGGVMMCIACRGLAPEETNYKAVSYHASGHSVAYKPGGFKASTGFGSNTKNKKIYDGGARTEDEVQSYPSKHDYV


Columns and labels:
[1] = molecular target: T1, claudin-18.2 antigen (manufacturer: …); test: ELISA, plate coated with claudin-18.2 antigen
Method: The ELISA plates were washed three times with PBST and blocked with 5% PBS-milk for 2 h at room temperature. The ELISA plate was washed three times with PBST, and the diluted antibodies were added to the ELISA plate, 30 μL per well, and incubated at room temperature for 60 min. The plates were washed three times with PBST and incubated with anti-human IgG-Fc-HRP (abcam, ab97225) for 50 min at room temperature. The plate was washed 12 times with PBST, and TMB was added, 30 μL per well. The reaction was terminated with stop solution and OD450 was read. The ELISA affinity EC50 was calculated.

[2] = molecular target: T1, claudin-18.2 antigen (manufacturer: …); test: Gator label-free kinetics, antibody loaded, antigen 2000-500 nM
Method: The GATOR instrument and associated software were opened and the Kinetics experimental mode was selected. After data collection, Kinetics fitting was performed to calculate the affinity kinetic parameters. The correlation coefficient R² of all antibodies in the Global fitting mode was greater than 0.95, which met the system suitability requirements and the results were reliable.

| Binder | EC50 [1] [mg/L] | Kd [2] [nM] | koff [2] [s⁻¹] | kon [2] [M⁻¹ s⁻¹] |
| --- | --- | --- | --- | --- |
| 1E7-huVH3-HC (IgG1) huVL2 (antibody, humanized 1E7, human IgG1, kappa) heavy: not shown light: DIQMTQSPSSLSASVGDRVTMTCKSSQSLLNSGNQKNYLTWYQQKPGKAPKLLIYWASTRESGVPSRFSGSGSGTDFTLTISSLQPEDFATYYCQNDYSYPFTFGGGTKLEIKRTVAAPSVFIFPPSDEQLKSGTASVVCLLNNFYPREAKVQWKVDNALQSGNSQESVTEQDSKDSTYSLSSTLTLSKADYEKHKVYACEVTHQGLSSPVTKSFNRGEC | 0.0576 | 0.289 | 2.94e-06 | 10200 |
| 1B6-huVH3huVL2 (antibody, human IgG4 S228P, kappa, humanized 1B6, human IgG4, kappa) heavy: not shown light: DIQMTQSPSSLSASVGDRVTMTCKSSQSLFNSGNQKNYLTWYQQKPGKAPKLLIYWASTRESGVPSRFSGSGSGTDFTLTISSLQPEDFATYYCQNDYSYPLTFGGGTKLEIKRTVAAPSVFIFPPSDEQLKSGTASVVCLLNNFYPREAKVQWKVDNALQSGNSQESVTEQDSKDSTYSLSSTLTLSKADYEKHKVYACEVTHQGLSSPVTKSFNRGEC | 0.245 | 12.7 | 0.000121 | 9480 |
| 1E7-huVH1-HC (IgG1) huVL2 (antibody, humanized 1E7, human IgG1, kappa) heavy: not shown light: DIQMTQSPSSLSASVGDRVTMTCKSSQSLLNSGNQKNYLTWYQQKPGKAPKLLIYWASTRESGVPSRFSGSGSGTDFTLTISSLQPEDFATYYCQNDYSYPFTFGGGTKLEIKRTVAAPSVFIFPPSDEQLKSGTASVVCLLNNFYPREAKVQWKVDNALQSGNSQESVTEQDSKDSTYSLSSTLTLSKADYEKHKVYACEVTHQGLSSPVTKSFNRGEC | 0.0305 | 4.85 | 5.87e-05 | 12100 |
| 1B6-huVH1huVL2 (antibody, human IgG4 S228P, kappa, humanized 1B6, human IgG4, kappa) heavy: not shown light: DIQMTQSPSSLSASVGDRVTMTCKSSQSLFNSGNQKNYLTWYQQKPGKAPKLLIYWASTRESGVPSRFSGSGSGTDFTLTISSLQPEDFATYYCQNDYSYPLTFGGGTKLEIKRTVAAPSVFIFPPSDEQLKSGTASVVCLLNNFYPREAKVQWKVDNALQSGNSQESVTEQDSKDSTYSLSSTLTLSKADYEKHKVYACEVTHQGLSSPVTKSFNRGEC | 0.0775 | 10.6 | 0.000164 | 15500 |
| 1E7-huVH1-HC (IgG1) huVL1 (antibody, humanized 1E7, human IgG1, kappa) heavy: not shown light: DIVMTQSPSSLSVSVGDRVTMTCKSSQSLLNSGNQKNYLTWYQQKPGQPPKLLIYWASTRESGVPDRFSGSGSGTDFTLTISSVQPEDFATYYCQNDYSYPFTFGGGTKLEIKRTVAAPSVFIFPPSDEQLKSGTASVVCLLNNFYPREAKVQWKVDNALQSGNSQESVTEQDSKDSTYSLSSTLTLSKADYEKHKVYACEVTHQGLSSPVTKSFNRGEC | 0.0479 | 4.9 | 5.97e-05 | 12200 |
| 1E7-huVH2-HC (IgG1) huVL1 (antibody, humanized 1E7, human IgG1, kappa) heavy: not shown light: DIVMTQSPSSLSVSVGDRVTMTCKSSQSLLNSGNQKNYLTWYQQKPGQPPKLLIYWASTRESGVPDRFSGSGSGTDFTLTISSVQPEDFATYYCQNDYSYPFTFGGGTKLEIKRTVAAPSVFIFPPSDEQLKSGTASVVCLLNNFYPREAKVQWKVDNALQSGNSQESVTEQDSKDSTYSLSSTLTLSKADYEKHKVYACEVTHQGLSSPVTKSFNRGEC | 0.111 | 1.82 | 1.97e-05 | 10900 |
| 1B6-mVHmVL (antibody, human IgG4 S228P, kappa, also called chimeric antibody 1B6; chimeric antibody murine 1B6 monoclonal antibody) heavy: not shown light: DIVMTQSPSSLTVTAGEKVTMSCKSSQSLFNSGNQKNYLTWYQQKPGQPPKLLIYWASTRESGVPDRFTGSGSGTDFTLTISSVQAEDLAVYFCQNDYSYPLTFGAGTKLELKRTVAAPSVFIFPPSDEQLKSGTASVVCLLNNFYPREAKVQWKVDNALQSGNSQESVTEQDSKDSTYSLSSTLTLSKADYEKHKVYACEVTHQGLSSPVTKSFNRGEC |  | 84.2 | 0.00188 | 22300 |
| 1B6-mVH-HC (IgG1) mVL (antibody, also called chimeric antibody 1B6-mVH-HC (IgG1) mVL) heavy: not shown light: DIVMTQSPSSLTVTAGEKVTMSCKSSQSLFNSGNQKNYLTWYQQKPGQPPKLLIYWASTRESGVPDRFTGSGSGTDFTLTISSVQAEDLAVYFCQNDYSYPLTFGAGTKLELKRTVAAPSVFIFPPSDEQLKSGTASVVCLLNNFYPREAKVQWKVDNALQSGNSQESVTEQDSKDSTYSLSSTLTLSKADYEKHKVYACEVTHQGLSSPVTKSFNRGEC |  | 44.4 | 0.000792 | 17800 |

Continued, values first:

| EC50 [1] [mg/L] | Kd [2] [nM] | koff [2] [s⁻¹] | kon [2] [M⁻¹ s⁻¹] | Binder |
| --- | --- | --- | --- | --- |
| 0.0663 | 0.35 | 3.6e-06 | 10300 | 1E7-huVH3-HC (IgG1) huVL1 (antibody, humanized 1E7, human IgG1, kappa) heavy: not shown light: DIVMTQSPSSLSVSVGDRVTMTCKSSQSLLNSGNQKNYLTWYQQKPGQPPKLLIYWASTRESGVPDRFSGSGSGTDFTLTISSVQPEDFATYYCQNDYSYPFTFGGGTKLEIKRTVAAPSVFIFPPSDEQLKSGTASVVCLLNNFYPREAKVQWKVDNALQSGNSQESVTEQDSKDSTYSLSSTLTLSKADYEKHKVYACEVTHQGLSSPVTKSFNRGEC |
| 0.141 | 13.1 | 0.000167 | 12800 | 1E7-huVH5-HC (IgG1) huVL2 (antibody, humanized 1E7, human IgG1, kappa) heavy: not shown light: DIQMTQSPSSLSASVGDRVTMTCKSSQSLLNSGNQKNYLTWYQQKPGKAPKLLIYWASTRESGVPSRFSGSGSGTDFTLTISSLQPEDFATYYCQNDYSYPFTFGGGTKLEIKRTVAAPSVFIFPPSDEQLKSGTASVVCLLNNFYPREAKVQWKVDNALQSGNSQESVTEQDSKDSTYSLSSTLTLSKADYEKHKVYACEVTHQGLSSPVTKSFNRGEC |
| 0.05 | 2.64 | 2.99e-05 | 11300 | 1E7-huVH4-HC (IgG1) huVL3 (antibody, humanized 1E7, human IgG1, kappa) heavy: not shown light: DIQMTQSPSSLSASVGDRVTITCRSSQSLLNSGNQKNYLTWYQQKPGKAPKLLIYWASTRESGVPSRFSGSGSGTDFTLTISSLQPEDFATYYCQNDYSYPFTFGGGTKLEIKRTVAAPSVFIFPPSDEQLKSGTASVVCLLNNFYPREAKVQWKVDNALQSGNSQESVTEQDSKDSTYSLSSTLTLSKADYEKHKVYACEVTHQGLSSPVTKSFNRGEC |
| 0.13 | 0.929 | 9.83e-06 | 10600 | 1E7-huVH5-HC (IgG1) huVL3 (antibody, humanized 1E7, human IgG1, kappa) heavy: not shown light: DIQMTQSPSSLSASVGDRVTITCRSSQSLLNSGNQKNYLTWYQQKPGKAPKLLIYWASTRESGVPSRFSGSGSGTDFTLTISSLQPEDFATYYCQNDYSYPFTFGGGTKLEIKRTVAAPSVFIFPPSDEQLKSGTASVVCLLNNFYPREAKVQWKVDNALQSGNSQESVTEQDSKDSTYSLSSTLTLSKADYEKHKVYACEVTHQGLSSPVTKSFNRGEC |
| 0.0397 | 10.7 | 0.000126 | 11800 | 1E7-huVH4-HC (IgG1) huVL2 (antibody, humanized 1E7, human IgG1, kappa) heavy: not shown light: DIQMTQSPSSLSASVGDRVTMTCKSSQSLLNSGNQKNYLTWYQQKPGKAPKLLIYWASTRESGVPSRFSGSGSGTDFTLTISSLQPEDFATYYCQNDYSYPFTFGGGTKLEIKRTVAAPSVFIFPPSDEQLKSGTASVVCLLNNFYPREAKVQWKVDNALQSGNSQESVTEQDSKDSTYSLSSTLTLSKADYEKHKVYACEVTHQGLSSPVTKSFNRGEC |
| 0.0555 | 2.89 | 3.18e-05 | 11000 | 1E7-huVH2-HC (IgG1) huVL2 (antibody, humanized 1E7, human IgG1, kappa) heavy: not shown light: DIQMTQSPSSLSASVGDRVTMTCKSSQSLLNSGNQKNYLTWYQQKPGKAPKLLIYWASTRESGVPSRFSGSGSGTDFTLTISSLQPEDFATYYCQNDYSYPFTFGGGTKLEIKRTVAAPSVFIFPPSDEQLKSGTASVVCLLNNFYPREAKVQWKVDNALQSGNSQESVTEQDSKDSTYSLSSTLTLSKADYEKHKVYACEVTHQGLSSPVTKSFNRGEC |
| 0.0707 | 11.6 | 0.000132 | 11300 | 1E7-huVH3-HC (IgG1) huVL3 (antibody, humanized 1E7, human IgG1, kappa) heavy: not shown light: DIQMTQSPSSLSASVGDRVTITCRSSQSLLNSGNQKNYLTWYQQKPGKAPKLLIYWASTRESGVPSRFSGSGSGTDFTLTISSLQPEDFATYYCQNDYSYPFTFGGGTKLEIKRTVAAPSVFIFPPSDEQLKSGTASVVCLLNNFYPREAKVQWKVDNALQSGNSQESVTEQDSKDSTYSLSSTLTLSKADYEKHKVYACEVTHQGLSSPVTKSFNRGEC |
|  | 2.66 | 2.71e-05 | 10200 | 1E7-mVHmVL (antibody, human IgG4 S228P, kappa, also called chimeric antibody 1E7; chimeric antibody murine 1E7 monoclonal antibody) heavy: not shown light: DIVMTQSPSSLSVTAGEKVTMSCKSSQSLLNSGNQKNYLTWYQQKPGQPPKLLIYWASTRESGVPDRFTGSGSGTDFTLTISSVQAEDLAVYYCQNDYSYPFTFGSGTKLEIKRTVAAPSVFIFPPSDEQLKSGTASVVCLLNNFYPREAKVQWKVDNALQSGNSQESVTEQDSKDSTYSLSSTLTLSKADYEKHKVYACEVTHQGLSSPVTKSFNRGEC |
|  | 3.82 | 4.48e-05 | 11700 | 1E7-mVH-HC (IgG1) mVL (antibody, also called chimeric antibody 1E7-mVH-HC (IgG1) mVL) heavy: not shown light: DIVMTQSPSSLSVTAGEKVTMSCKSSQSLLNSGNQKNYLTWYQQKPGQPPKLLIYWASTRESGVPDRFTGSGSGTDFTLTISSVQAEDLAVYYCQNDYSYPFTFGSGTKLEIKRTVAAPSVFIFPPSDEQLKSGTASVVCLLNNFYPREAKVQWKVDNALQSGNSQESVTEQDSKDSTYSLSSTLTLSKADYEKHKVYACEVTHQGLSSPVTKSFNRGEC |
